B1: DULLARD (parent)
chain: LVVFTASMEIYGSAVADKLDNSRS
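Note: lentivirally expressed fusions sorted by FACS into six bins by GFP to DsRed ratio, PSI derived from sequencing read proportions per bin multiplied by bin number.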

Variants of B1 are the subject of the data set. Nature of the data set: protein stability index of a GFP-peptide fusion (GPS, HEK-293T) (PSI 1-6); higher = more stable. To be noted: c terminus: a fixed tail appended.
As for LVVPTASMEIYGSAVADKLDNSRS [F4P], the protein stability index stood at 3.61.

In the case of LVVHTASMEIYGSAVADKLDNSRS [F4H], the protein stability index worked out at 2.78.

Take LVVQTASMEIYGSAVADKLDNSRS [F4Q]: the protein stability index is 2.78.

As for LVVNTASMEIYGSAVADKLDNSRS [F4N], the protein stability index was determined as 2.4.

For LVVCTASMEIYGSAVADKLDNSRS [F4C], the protein stability index amounted to 1.08.

LVVDTASMEIYGSAVADKLDNSRS [F4D]: the protein stability index worked out at 2.05.

With LVVYTASMEIYGSAVADKLDNSRS [F4Y], the protein stability index worked out at 2.93.

Take LVVSTASMEIYGSAVADKLDNSRS [F4S]: the protein stability index was determined as 2.34.

Turning to LVVRTASMEIYGSAVADKLDNSRS [F4R], the protein stability index worked out at 2.14.

With LVVITASMEIYGSAVADKLDNSRS [F4I], the protein stability index stood at 3.55.

LVVTTASMEIYGSAVADKLDNSRS [F4T]: the protein stability index was 1.56.

Consider LVVGTASMEIYGSAVADKLDNSRS [F4G], for which the protein stability index was 2.24.

LVVWTASMEIYGSAVADKLDNSRS [F4W]: the protein stability index worked out at 3.77.

On to LVVATASMEIYGSAVADKLDNSRS [F4A], for which the protein stability index is 1.61.

In the case of LVVKTASMEIYGSAVADKLDNSRS [F4K], the protein stability index worked out at 2.91.

Regarding LVVETASMEIYGSAVADKLDNSRS [F4E], the protein stability index was determined as 2.27.

Regarding LVTFTASMEIYGSAVADKLDNSRS [V3T], the protein stability index stood at 1.99.

As for LVKFTASMEIYGSAVADKLDNSRS [V3K], the protein stability index was found to be 2.

Consider LVSFTASMEIYGSAVADKLDNSRS [V3S], for which the protein stability index was found to be 1.86.

As for LVRFTASMEIYGSAVADKLDNSRS [V3R], the protein stability index worked out at 2.23.

For the variant LVWFTASMEIYGSAVADKLDNSRS [V3W], the protein stability index was determined as 1.56.

Take LVMFTASMEIYGSAVADKLDNSRS [V3M]: the protein stability index came out at 3.28.

Take LVEFTASMEIYGSAVADKLDNSRS [V3E]: the protein stability index was 2.33.

LVDFTASMEIYGSAVADKLDNSRS [V3D]: the protein stability index stood at 3.23.

For the variant LVHFTASMEIYGSAVADKLDNSRS [V3H], the protein stability index turned out to be 2.21.

As to LVPFTASMEIYGSAVADKLDNSRS [V3P], the protein stability index was found to be 3.51.

Consider LVQFTASMEIYGSAVADKLDNSRS [V3Q], for which the protein stability index turned out to be 2.62.

Regarding LVGFTASMEIYGSAVADKLDNSRS [V3G], the protein stability index worked out at 2.75.

With LVYFTASMEIYGSAVADKLDNSRS [V3Y], the protein stability index was found to be 2.68.

Turning to LVCFTASMEIYGSAVADKLDNSRS [V3C], the protein stability index turned out to be 2.03.

With LVNFTASMEIYGSAVADKLDNSRS [V3N], the protein stability index came to 2.75.

As to LVLFTASMEIYGSAVADKLDNSRS [V3L], the protein stability index came out at 1.71.

In the case of LVAFTASMEIYGSAVADKLDNSRS [V3A], the protein stability index was 2.48.

On to LVFFTASMEIYGSAVADKLDNSRS [V3F], for which the protein stability index came out at 2.15.

Consider LVVFTAKMEIYGSAVADKLDNSRS [S7K], for which the protein stability index came out at 2.07.

Consider LVVFTATMEIYGSAVADKLDNSRS [S7T], for which the protein stability index worked out at 2.48.

As for LVVFTAMMEIYGSAVADKLDNSRS [S7M], the protein stability index came out at 2.8.

LVVFTAAMEIYGSAVADKLDNSRS [S7A]: the protein stability index was found to be 1.85.

Take LVVFTAGMEIYGSAVADKLDNSRS [S7G]: the protein stability index came out at 1.24.

On to LVVFTAFMEIYGSAVADKLDNSRS [S7F], for which the protein stability index turned out to be 2.06.

With LVVFTADMEIYGSAVADKLDNSRS [S7D], the protein stability index was 1.55.

For LVVFTAPMEIYGSAVADKLDNSRS [S7P], the protein stability index was found to be 1.93.

Regarding LVVFTACMEIYGSAVADKLDNSRS [S7C], the protein stability index was determined as 3.12.

LVVFTAVMEIYGSAVADKLDNSRS [S7V]: the protein stability index amounted to 2.27.

Take LVVFTAHMEIYGSAVADKLDNSRS [S7H]: the protein stability index was found to be 3.69.

Turning to LVVFTANMEIYGSAVADKLDNSRS [S7N], the protein stability index amounted to 2.14.

In the case of LVVFTAIMEIYGSAVADKLDNSRS [S7I], the protein stability index is 4.7.

In the case of LVVFTASREIYGSAVADKLDNSRS [M8R], the protein stability index came out at 1.9.

As to LVVFTASTEIYGSAVADKLDNSRS [M8T], the protein stability index came out at 1.82.

As for LVVFTASWEIYGSAVADKLDNSRS [M8W], the protein stability index was 1.05.

In the case of LVVFTASKEIYGSAVADKLDNSRS [M8K], the protein stability index turned out to be 1.96.

With LVVFTASNEIYGSAVADKLDNSRS [M8N], the protein stability index is 1.65.

In the case of LVVFTASPEIYGSAVADKLDNSRS [M8P], the protein stability index came out at 1.18.

As to LVVFTASCEIYGSAVADKLDNSRS [M8C], the protein stability index was 1.14.

LVVFTASAEIYGSAVADKLDNSRS [M8A]: the protein stability index came to 1.59.

Regarding LVVFTASYEIYGSAVADKLDNSRS [M8Y], the protein stability index is 2.64.

LVVFTASIEIYGSAVADKLDNSRS [M8I]: the protein stability index is 4.57.

As to LVVFTASGEIYGSAVADKLDNSRS [M8G], the protein stability index came out at 1.31.

Take LVVFTASHEIYGSAVADKLDNSRS [M8H]: the protein stability index came out at 2.98.

Consider LVVFTASSEIYGSAVADKLDNSRS [M8S], for which the protein stability index came out at 1.02.

Take LVVFTASFEIYGSAVADKLDNSRS [M8F]: the protein stability index came out at 3.03.

For LVVFTASEEIYGSAVADKLDNSRS [M8E], the protein stability index was 1.83.

As to LVVFTASLEIYGSAVADKLDNSRS [M8L], the protein stability index turned out to be 2.01.

For the variant LVVFTASQEIYGSAVADKLDNSRS [M8Q], the protein stability index came to 1.49.

Take LVVFTASDEIYGSAVADKLDNSRS [M8D]: the protein stability index was determined as 2.65.

On to LVVFTASVEIYGSAVADKLDNSRS [M8V], for which the protein stability index was 2.73.

In the case of LVVFTASMAIYGSAVADKLDNSRS [E9A], the protein stability index was 2.72.

For the variant LVVFTASMCIYGSAVADKLDNSRS [E9C], the protein stability index was 2.96.

As to LVVFFASMEIYGSAVADKLDNSRS [T5F], the protein stability index came out at 2.49.

As to LVVFSASMEIYGSAVADKLDNSRS [T5S], the protein stability index is 3.15.

In the case of LVVFPASMEIYGSAVADKLDNSRS [T5P], the protein stability index is 1.66.

With LVVFMASMEIYGSAVADKLDNSRS [T5M], the protein stability index came out at 3.54.

LVVFRASMEIYGSAVADKLDNSRS [T5R]: the protein stability index turned out to be 2.6.

With LVVFDASMEIYGSAVADKLDNSRS [T5D], the protein stability index turned out to be 2.09.

For LVVFHASMEIYGSAVADKLDNSRS [T5H], the protein stability index amounted to 1.99.

As for LVVFAASMEIYGSAVADKLDNSRS [T5A], the protein stability index was found to be 2.22.

As for LVVFEASMEIYGSAVADKLDNSRS [T5E], the protein stability index is 2.

Regarding LVVFQASMEIYGSAVADKLDNSRS [T5Q], the protein stability index stood at 2.37.

On to LVVFNASMEIYGSAVADKLDNSRS [T5N], for which the protein stability index was 1.76.

As to LVVFVASMEIYGSAVADKLDNSRS [T5V], the protein stability index is 3.31.

On to LVVFTESMEIYGSAVADKLDNSRS [A6E], for which the protein stability index is 1.54.

As for LVVFTKSMEIYGSAVADKLDNSRS [A6K], the protein stability index is 1.41.

For the variant LVVFTQSMEIYGSAVADKLDNSRS [A6Q], the protein stability index was found to be 2.02.

As to LVVFTHSMEIYGSAVADKLDNSRS [A6H], the protein stability index worked out at 2.33.

As to LVVFTRSMEIYGSAVADKLDNSRS [A6R], the protein stability index amounted to 2.08.

Consider LVVFTDSMEIYGSAVADKLDNSRS [A6D], for which the protein stability index came out at 1.47.

As to LVVFTNSMEIYGSAVADKLDNSRS [A6N], the protein stability index came out at 1.53.

For the variant LVVFTPSMEIYGSAVADKLDNSRS [A6P], the protein stability index is 1.43.

For the variant LVVFTLSMEIYGSAVADKLDNSRS [A6L], the protein stability index came to 2.11.

As to LVVFTYSMEIYGSAVADKLDNSRS [A6Y], the protein stability index was found to be 2.47.

As for LVVFTTSMEIYGSAVADKLDNSRS [A6T], the protein stability index was 2.8.

Consider LVVFTCSMEIYGSAVADKLDNSRS [A6C], for which the protein stability index was 2.65.

For LVVFTISMEIYGSAVADKLDNSRS [A6I], the protein stability index was determined as 4.3.

On to LVVFTGSMEIYGSAVADKLDNSRS [A6G], for which the protein stability index was determined as 1.57.
